Test results reported in the supplement of paper PMC10126150.
± gives the standard deviation of the averaged measurements.

Tested on: ATP
Test: switch fluorescence ratio, 500 uM ATP over buffer (Cy3 cluster intensity, sum of 5 cycles each) (fold (ratio)); higher = stronger signal-on switching upon ATP binding; sequences stand for … in TCGTCGGCAGCGTCAGATGTGTATAAGAGACAGTTTTTTTTTTTTTTTTTTTTTTTTT…TC
Details: aptamer strand: ATP DNA aptamer (quencher-CACCTGGGGGAGTATTGCGGAGGAAGG + anchor), 100 nM annealed; ATP concentration: 500 uM
How it was run: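 Cy3-labelled switching-strand clusters on a modified Illumina MiSeq flow-cell were annealed to 100 nM quencher-labelled ATP aptamer, imaged in selection buffer, then imaged after 15 min with 500 uM ATP at 22 °C. Five buffer/ATP cycles ran, with NaOH stripping and re-annealing between them. The fluorescence ratio is summed target-cycle over summed buffer-cycle Cy3 intensity per cluster, averaged per switch-domain sequence. Clusters outside 100-1000 RFU were excluded.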
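Also: ATP exposure 15 min at 22 °C before imaging.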

Sequence	switch fluorescence ratio
ATCTATGTGG	0.982 ± 0.035
ATCTCACAGA	0.989 ± 0.025
ATCTGAACGT	1.02 ± 0.074
ATCTGAAGGT	0.975 ± 0.031
ATCTGATAGC	0.955 ± 0.047
ATCTGATGTC	0.978 ± 0.018
ATCTGCCTTG	1 ± 0.019
ATCTGGGAGT	1.014 ± 0.00032
ATCTGGGGGG	1 ± 0.064
ATCTGTCTAT	0.98 ± 0.026
ATCTTAAATA	0.9918 ± 0.0058
ATCTTGGTCT	1.01 ± 0.045
ATCTTTTTGG	0.996 ± 0.024
ATGAAAGACC	1.0427 ± 0.00025
ATGAAAGGAT	1.014 ± 0.0042
ATGAAAGGGT	0.998 ± 0.023
ATGAAATCAG	0.9991 ± 0.0044
ATGAAGACTA	0.9962 ± 0.0014
ATGAAGGGAT	0.9969 ± 0.00076
ATGAAGGTCT	0.968 ± 0.02
ATGAAGTAGG	0.989 ± 0.013
ATGAAGTGAG	1.01 ± 0.027
ATGAATAAAT	1.012 ± 0.0058
ATGAATAGAG	1.02 ± 0.031
ATGAATGTAT	0.9855 ± 0.0062

Sequence	switch fluorescence ratio
ATGAATTAAA	0.992 ± 0.018
ATGAATTTTT	0.992 ± 0.042
ATGACATGGG	1.04 ± 0.025
ATGACGAAAA	1.04 ± 0.058
ATGACGCGGG	0.959 ± 0.023
ATGACGCTTT	1.02 ± 0.022
ATGACTGGAG	0.9896 ± 0.0076
ATGACTTGTA	0.987 ± 0.015
ATGAGAATAG	1.01 ± 0.0016
ATGAGATAGT	1.002 ± 0.0049
ATGAGCACAA	1.09 ± 0.017
ATGAGCATTC	1.18 ± 0.026
ATGAGGCGAA	1.01 ± 0.011
ATGAGGCTTT	1.02 ± 0.011
ATGAGGGCGG	0.98 ± 0.021
ATGAGGGTCC	1.1 ± 0.032
ATGAGGGTCG	0.993 ± 0.014
ATGAGGTTAC	0.988 ± 0.074
ATGAGTACGG	1.04 ± 0.03
ATGAGTAGGG	1.018 ± 0.0098
ATGAGTCATG	1.01 ± 0.028
ATGAGTCGGA	0.975 ± 0.055
ATGAGTGACC	1.02 ± 0.016
ATGAGTGGTG	1.019 ± 0.0077
ATGAGTTATT	1.01 ± 0.013

Sequence	switch fluorescence ratio
ATGAGTTGCG	0.977 ± 0.029
ATGATACTTC	0.9968 ± 0.0027
ATGATAGGGA	1.01 ± 0.063
ATGATAGTAC	1.04 ± 0.017
ATGATATGCA	1.017 ± 0.003
ATGATCCCGC	1.2 ± 0.019
ATGATCTTCG	1.038 ± 0.0053
ATGATGATAG	1.01 ± 0.02
ATGATGATGA	1.03 ± 0.02
ATGATGCTGG	1.02 ± 0.077
ATGATGTAAT	0.995 ± 0.051
ATGATTACGT	1.01 ± 0.03
ATGATTAGGA	0.987 ± 0.037
ATGATTATGG	1.02 ± 0.014
ATGATTGCGA	1.01 ± 0.061
ATGATTGGA	0.992 ± 0.015
ATGCAACGTC	0.989 ± 0.049
ATGCACAGAT	0.994 ± 0.027
ATGCAGAATT	0.988 ± 0.017
ATGCAGCAGT	1.46 ± 0.051
ATGCAGGTAT	1.01 ± 0.049
ATGCATCGAG	1.01 ± 0.03
ATGCATCTAT	0.989 ± 0.011
ATGCATGGGG	1.01 ± 0.017
ATGCCAATAA	1.01 ± 0.03

Sequence	switch fluorescence ratio
ATGCCCGTCG	1.06 ± 0.043
ATGCCGGGGG	1 ± 0.021
ATGCGCAGCG	1.04 ± 0.035
ATGCGCTCGA	1.02 ± 0.053
ATGCGCTGGG	1.01 ± 0.021
ATGCGGAGTG	0.987 ± 0.02
ATGCGGGGTC	1.03 ± 0.053
ATGCGGTCCT	1.02 ± 0.016
ATGCGGTCGG	1.02 ± 0.045
ATGCGTAGGT	0.988 ± 0.049
ATGCGTATCC	1 ± 0.034
ATGCTGATGT	1.016 ± 0.0011
ATGCTGGGGT	0.986 ± 0.021
ATGCTGGGTA	0.997 ± 0.026
ATGCTTCTGT	0.964 ± 0.013
ATGCTTGATT	1.017 ± 0.0041
ATGGAAAAGC	1 ± 0.056
ATGGAAAGAA	0.974 ± 0.038
ATGGAAAGTT	0.99 ± 0.035
ATGGAACTTG	0.9943 ± 0.0059
ATGGAAGTG	1.001 ± 0.0015
ATGGAATAT	0.969 ± 0.038
ATGGACATAC	1.22 ± 0.098
ATGGACTCCT	1.04 ± 0.044
ATGGAGCAGT	1.6 ± 0.019

Sequence	switch fluorescence ratio
ATGGAGGCGG	1.04 ± 0.04
ATGGAGGGGG	1.02 ± 0.047
ATGGATAAGC	0.997 ± 0.011
ATGGATAATG	0.977 ± 0.054
ATGGATAATT	1.04 ± 0.011
ATGGATTGAT	0.9621 ± 0.0051
ATGGATTTAT	0.992 ± 0.037
ATGGCACAAT	1.02 ± 0.067
ATGGCCGATA	0.9537 ± 0.0027
ATGGCCGGTG	1.006 ± 0.004
ATGGCCTTAG	0.9931 ± 0.0094
ATGGCTTGTA	0.999 ± 0.01
ATGGGAAACT	1.012 ± 0.0074
ATGGGAATAC	2.59 ± 0.28
ATGGGACCGT	1.01 ± 0.056
ATGGGACGAT	0.995 ± 0.026
ATGGGATGGG	1 ± 0.025
ATGGGCAACT	0.99 ± 0.024
ATGGGCACGG	0.99 ± 0.025
ATGGGCCGAG	0.989 ± 0.04
ATGGGCCTGG	0.9792 ± 0.0094
ATGGGCGTGG	1 ± 0.06
ATGGGCTGGA	1.04 ± 0.015
ATGGGGCCAA	1.03 ± 0.031
ATGGGGCCTG	0.9828 ± 0.0078

Sequence	switch fluorescence ratio
ATGGGGCTGA	0.993 ± 0.029
ATGGGGCTTT	1.01 ± 0.013
ATGGGGGCCG	1.01 ± 0.039
ATGGGGGCTT	1.02 ± 0.047
ATGGGGGGCC	0.995 ± 0.026
ATGGGGGTTC	0.992 ± 0.023
ATGGGGGTTG	0.999 ± 0.018
ATGGGGTCAG	0.993 ± 0.021
ATGGGGTTGG	1 ± 0.049
ATGGGGTTTT	1.01 ± 0.02
ATGGGTAGAG	1 ± 0.022
ATGGGTATGT	1.01 ± 0.043
ATGGGTCACG	0.987 ± 0.012
ATGGGTCAGT	0.9872 ± 0.0044
ATGGGTCGGA	1.01 ± 0.053
ATGGGTCTAT	1 ± 0.012
ATGGGTCTT	1.01 ± 0.023
ATGGGTGGTT	0.995 ± 0.032
ATGGGTGTCG	1.05 ± 0.015
ATGGGTTCGC	0.976 ± 0.035
ATGGGTTCTG	0.999 ± 0.017
ATGGTAAAAA	1.05 ± 0.1
ATGGTAAACC	1.16 ± 0.066
ATGGTACCCT	1.038 ± 0.0052
ATGGTACCGT	1.02 ± 0.014

Sequence	switch fluorescence ratio
ATGGTAGGGT	1.01 ± 0.018
ATGGTCAGAT	0.994 ± 0.027
ATGGTCAGGC	0.973 ± 0.019
ATGGTCATGT	0.9943 ± 0.0072
ATGGTCCATG	0.995 ± 0.022
ATGGTCCGGT	0.988 ± 0.015
ATGGTCTGGG	0.971 ± 0.011
ATGGTGCAGG	1.06 ± 0.011
ATGGTGGAGG	1.01 ± 0.024
ATGGTGGCAT	1.01 ± 0.012
ATGGTGGGGC	0.979 ± 0.047
ATGGTGTCTT	0.961 ± 0.023
ATGGTGTGCG	1.01 ± 0.025
ATGGTGTGGG	1.03 ± 0.021
ATGGTGTTTT	0.9803 ± 0.008
ATGGTTAGCT	1.02 ± 0.027
ATGGTTAGGG	1.03 ± 0.033
ATGGTTCCAC	0.997 ± 0.024
ATGGTTTAGG	0.988 ± 0.038
ATGGTTTGGG	0.99 ± 0.045
ATGGTTTTG	0.975 ± 0.047
ATGGTTTTT	0.984 ± 0.022
ATGTAACTTT	1.16 ± 0.27
ATGTAAGAGG	0.9754 ± 0.0093
ATGTAAGGAG	1.02 ± 0.018

Sequence	switch fluorescence ratio
ATGTAATGGT	1.01 ± 0.03
ATGTAATTAA	0.964 ± 0.046
ATGTAATTTC	0.9987 ± 0.0036
ATGTACATTT	1.068 ± 0.0059
ATGTAGACGG	0.984 ± 0.011
ATGTAGAGGC	0.987 ± 0.026
ATGTAGATAT	1.01 ± 0.021
ATGTAGCATC	1.56 ± 0.028
ATGTAGGGTC	1.02 ± 0.02
ATGTAGGGTG	1.008 ± 0.0039
ATGTAGGTTG	0.988 ± 0.029
ATGTATATAA	0.985 ± 0.018
ATGTATGTGC	0.997 ± 0.041
ATGTATGTTG	0.982 ± 0.072
ATGTATTACT	1.03 ± 0.033
ATGTCAGAGG	0.977 ± 0.041
ATGTCAGCGC	1 ± 0.044
ATGTCAGGGG	1.14 ± 0.021
ATGTCAGGTG	4.1 ± 0.71
ATGTCCGGG	0.968 ± 0.045
ATGTCCTAGC	1.03 ± 0.0038
ATGTCGGGCA	0.986 ± 0.064
ATGTCGTGTG	0.9923 ± 0.0066
ATGTGAGGGG	0.986 ± 0.029
ATGTGCGGGG	0.99 ± 0.019
